The values that follow come from US20200339636A1.

The target in this assay is FZDs (endogenous Frizzled receptors of the cells used: HEK293T cells; CSPG4 KO HeLa cells). Description: cell-based or functional assay.

As to “TcdB^GFE (full length TcdB with 1595VNFLQS replaced by GFE) (from UniProt P18177 1-2366)”, the toxicity on CSPG4 KO HeLa cells, cell-rounding assay (CR50), against WT TcdB was found to be 190 fold.
